Experimental data from patent US20190030114A1, “ISOFORM-SPECIFIC CALPAIN INHIBITORS, METHODS OF IDENTIFICATION, AND USES THEREOF” (WESTERN UNIVERSITY OF HEALTH SCIENCES, priority 2014, published 2019).

Molecular target: T1, calpain-2 (Homo sapiens, UniProt P17655)
T1 sequence (P17655 1-700): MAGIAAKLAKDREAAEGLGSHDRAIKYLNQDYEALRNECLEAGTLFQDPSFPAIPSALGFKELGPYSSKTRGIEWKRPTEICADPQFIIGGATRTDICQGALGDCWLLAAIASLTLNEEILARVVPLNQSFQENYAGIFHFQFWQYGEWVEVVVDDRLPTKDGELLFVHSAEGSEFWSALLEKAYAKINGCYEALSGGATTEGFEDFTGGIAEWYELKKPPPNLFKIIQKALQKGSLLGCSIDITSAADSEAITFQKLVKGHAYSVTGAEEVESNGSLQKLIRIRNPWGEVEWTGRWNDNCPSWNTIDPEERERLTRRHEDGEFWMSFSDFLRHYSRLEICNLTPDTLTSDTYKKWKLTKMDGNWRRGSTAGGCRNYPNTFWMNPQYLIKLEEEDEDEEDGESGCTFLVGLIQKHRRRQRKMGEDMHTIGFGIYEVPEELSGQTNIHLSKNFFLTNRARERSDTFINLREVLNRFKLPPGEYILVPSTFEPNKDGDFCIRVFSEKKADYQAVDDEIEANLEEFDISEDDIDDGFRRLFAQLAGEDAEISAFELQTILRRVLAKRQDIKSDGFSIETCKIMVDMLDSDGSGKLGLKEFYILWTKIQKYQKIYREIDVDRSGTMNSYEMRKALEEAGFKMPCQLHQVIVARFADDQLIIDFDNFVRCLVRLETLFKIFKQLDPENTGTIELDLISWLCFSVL
T1 sequence (P04632 1-268 partner): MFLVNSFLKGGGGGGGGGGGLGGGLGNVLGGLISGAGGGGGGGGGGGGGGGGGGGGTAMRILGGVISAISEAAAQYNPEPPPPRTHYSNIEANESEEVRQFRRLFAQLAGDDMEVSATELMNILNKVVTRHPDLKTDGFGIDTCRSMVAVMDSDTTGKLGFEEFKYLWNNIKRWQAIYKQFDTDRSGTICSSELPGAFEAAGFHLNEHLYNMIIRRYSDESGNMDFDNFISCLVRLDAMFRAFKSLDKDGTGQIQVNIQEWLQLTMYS
Assay: in vitro calpain-2 inhibition, succinic-Leu-Tyr-AMC substrate
Format: biochemical
Settings: selectivity calpain-2 over calpain-1
Experimental: Formula 1, where chiral center 1 is the L-form and chiral center 2 is a racemic mixture of D- and L- in this example was introduced at various concentrations (from 1 nM to 10 μM) into an in vitro mix comprising succinic-Leu-Tyr-AMC and calpain-1 or calpain-2 (Sasaki et al, 1984), and the kinetics of the loss of fluorescence were determined for each of the calpains (Powers et al, 2000). […] Therefore, the assessment of selectivity described herein was different than the prior teaching.
Formula 1A, where chiral center 1 is the S-form and chiral center 2 is the S-form was separated from the S-R-form (Formula 1B) using methods that are well-known methods for separating diastereoisomers. Formula 1A, which is also referred to herein as compound 18A, in this example was introduced at various concentrations into an in vitro mix comprising succinic-Leu-Tyr-AMC and μ-calpain or m-calpain (Sasaki et al, 1984), and the kinetics of the loss of fluorescence were determined for each of the calpains.

B1: Stargazin gamma-2: protein involved in AMPA receptor trafficking, calpain-2 specific substrate; cytoplasmic C-terminus (protein, UniProt Q9Y698 1-323, looked up)
Voltage-dependent calcium …: MGLFDRGVQMLLTTVGAFAAFSLMTIAVGTDYWLYSRGVCKTKSVSENETSKKNEEVMTHSGLWRTCCLEGNFKGLCKQIDHFPEDADYEADTAEYFLRAVRASSIFPILSVILLFMGGLCIAASEFYKTRHNIILSAGIFFVSAGLSNIIGIIVYISANAGDPSKSDSKKNSYSYGWSFYFGALSFIIAEMVGVLAVHMFIDRHKQLRATARATDYLQASAITRIPSYRYRYQRRSRSSSRSTEPSHSRDASPVGIKGFNTLPSTEISMYTLSRDPLKAATTPTATYNSDRDNSFLQVHNCIQKENKDSLHSNTANRRTTPV
  inhibits calpain-2 more than calpain-1 (Ki lower for calpain-2): approximately 100 fold
